Data from patent publication US20260356924 (published 2026).
Numbering of substitutions follows the chain as printed.

B1: Ab10 (antibody, V domains shown)
VH: EVQLVQSGAEVKKPGSSVKVSCKASGFTFTRYWMHWVKERPGHGLEWIGNINPNNGGTDFNEKFKNRVTMTVHKSITTAYMELSRLTSDDSAVYYCARGTGTGAMDYWGQGTLVSVSS
VL: DIVMTQTPLSSPVTLGQPASISCRSSQSLVHNNGITYLYWYQQRPGQPPRLLIYRVSNRFSGVPDRFSGSGAGTDFTLKINRVEAEDVGVYFCFQGTHVPRTFGQGTKLEIK
modifications: enriched paired helical filament tau, hyperphosphorylated
B2: Ab10 (antibody, V domains shown)
VH: B1 VH
VL: B1 VL
modifications: non-phosphorylated recombinant tau
B3: Ab5 (antibody, V domains shown)
VH: QVQLVQSGAEVKKPGASVKVSCKASGFTFTRYWMHWVKERPGQGLEWMGNINPNNGGTDFNEKFKNRVTMTVHKSTSTVFIQLSSLRSEDTAVYYCARGTGTGAMDYWGQGTSVTVSS
VL: B1 VL
modifications: non-phosphorylated recombinant tau
B4: Ab5 (antibody, V domains shown)
VH: B3 VH
VL: B1 VL
B5: Ab10 (antibody, V domains shown)
VH: B1 VH
VL: B1 VL
modifications: immunopurified paired helical filament tau, hyperphosphorylated
B6: Ab5 (antibody, V domains shown)
VH: B3 VH
VL: B1 VL
modifications: enriched paired helical filament tau, hyperphosphorylated
B7: Ab1 (antibody, V domains shown)
VH: QVQLVQSGAEVKKSGASVKVSCKASGFTFTRYWMHWVRQAPGQGLEWIGNINPNNGGTDFNEKFKNRVTLIRDTSTTTVFIQLTSLTSEDSAVYYCARGTGTGAMDYWGQGTLVTVSS
VL: DIVMTQSPLSLSVTPGQPASISCRSSQSLVHNNGITYLYWYLQKPGQSPQLLIYRVSNRFSGVPDRFSGSGSGTDFTLKISRVEAEDVGVYYCFQGTHVPRTFGQGTKVEIK
modifications: enriched paired helical filament tau, hyperphosphorylated
B8: Ab4 (antibody, V domains shown)
VH: B3 VH
VL: B7 VL
modifications: non-phosphorylated recombinant tau
B9: Ab7 (antibody, V domains shown)
VH: B1 VH with E1Q, S16A, K38R, T77S, R85S, T87R, S115T
VL: B7 VL with I2V, S12P, P15L, L42Q, K44R, Q50R, V109L
modifications: enriched paired helical filament tau, hyperphosphorylated
B10: Ab1 (antibody, V domains shown)
VH: B7 VH
VL: B7 VL
modifications: non-phosphorylated recombinant tau
B11: Ab2 (antibody, V domains shown)
VH: B3 VH with Q6E, Q43H, M70I, T76A, V79A, F80Y, I81M, Q82E, S113T
VL: B7 VL with I2V, S12P, P15L, L42Q, K44R, Q50R, V109L
modifications: immunopurified paired helical filament tau, hyperphosphorylated
B12: Ab8 (antibody, V domains shown)
VH: B7 VH
VL: B7 VL with I2V, S12P, P15L, L42Q, K44R, Q50R, V109L
modifications: non-phosphorylated recombinant tau
B13: Ab9 (antibody, V domains shown)
VH: B1 VH
VL: B7 VL
modifications: enriched paired helical filament tau, hyperphosphorylated
B14: Ab11 (antibody, V domains shown)
VH: B3 VH
VL: B7 VL with I2V, S12P, P15L, L42Q, K44R, Q50R, V109L
modifications: non-phosphorylated recombinant tau
B15: Ab4 (antibody, V domains shown)
VH: B3 VH
VL: B7 VL
modifications: enriched paired helical filament tau, hyperphosphorylated
B16: Ab7 (antibody, V domains shown)
VH: B1 VH with E1Q, S16A, K38R, T77S, R85S, T87R, S115T
VL: B7 VL with I2V, S12P, P15L, L42Q, K44R, Q50R, V109L
modifications: non-phosphorylated recombinant tau
B17: Ab6 (antibody, V domains shown)
VH: B3 VH with Q6E, Q43H, M70I, T76A, V79A, F80Y, I81M, Q82E, S113T
VL: B7 VL
modifications: enriched paired helical filament tau, hyperphosphorylated
B18: Ab2 (antibody, V domains shown)
VH: B3 VH with Q6E, Q43H, M70I, T76A, V79A, F80Y, I81M, Q82E, S113T
VL: B7 VL with I2V, S12P, P15L, L42Q, K44R, Q50R, V109L
B19: Ab8 (antibody, V domains shown)
VH: B7 VH
VL: B7 VL with I2V, S12P, P15L, L42Q, K44R, Q50R, V109L
modifications: enriched paired helical filament tau, hyperphosphorylated
B20: Ab9 (antibody, V domains shown)
VH: B1 VH
VL: B7 VL
modifications: non-phosphorylated recombinant tau
B21: Ab2 (antibody, V domains shown)
VH: B3 VH with Q6E, Q43H, M70I, T76A, V79A, F80Y, I81M, Q82E, S113T
VL: B7 VL with I2V, S12P, P15L, L42Q, K44R, Q50R, V109L
modifications: non-phosphorylated recombinant tau
B22: Ab3 (antibody, V domains shown)
VH: B1 VH
VL: B7 VL with I2V, S12P, P15L, L42Q, K44R, Q50R, V109L
modifications: non-phosphorylated recombinant tau
B23: Ab2 (antibody, V domains shown)
VH: B3 VH with Q6E, Q43H, M70I, T76A, V79A, F80Y, I81M, Q82E, S113T
VL: B7 VL with I2V, S12P, P15L, L42Q, K44R, Q50R, V109L
modifications: enriched paired helical filament tau, hyperphosphorylated
B24: Ab1 (antibody, V domains shown)
VH: B7 VH
VL: B7 VL
B25: Ab3 (antibody, V domains shown)
VH: B1 VH
VL: B7 VL with I2V, S12P, P15L, L42Q, K44R, Q50R, V109L
modifications: enriched paired helical filament tau, hyperphosphorylated
B26: Ab11 (antibody, V domains shown)
VH: B3 VH
VL: B7 VL with I2V, S12P, P15L, L42Q, K44R, Q50R, V109L
modifications: enriched paired helical filament tau, hyperphosphorylated
B27: Ab6 (antibody, V domains shown)
VH: B3 VH with Q6E, Q43H, M70I, T76A, V79A, F80Y, I81M, Q82E, S113T
VL: B7 VL
modifications: non-phosphorylated recombinant tau
B28: Ab8 (antibody, V domains shown)
VH: B7 VH
VL: B7 VL with I2V, S12P, P15L, L42Q, K44R, Q50R, V109L
B29: hV0022 control (antibody, V domains shown)
VH: QVQLQQPGTELVKPGSSVNLSCKASGFTFTRYWMHWVKERPGHGLEWIGNINPNNGGTDFNEKFKNKATLTVHKSSTTVFIQLSSLTSEDSAVYYCARGTGTGAMDYWGQGTSVTVSS
VL: DVVMTQTPLSLPVSLGDQASISCRSSQSLVHNNGITYLYWYLQKPGQSPKLLIYRVSNRFSGVPDRFGGSGSGTDFTLKISRVEAEDLGVYFCFQGTHVPRTFGGGTKLEIK
modifications: enriched paired helical filament tau, hyperphosphorylated
B30: V0022 control (antibody, V domains shown)
VH: B29 VH
VL: B29 VL
modifications: immunopurified paired helical filament tau, hyperphosphorylated

How the values were obtained:
ePHF = ePHF (human, UniProt P10636); experiment: ELISA
wild type tau = wild type tau (human); experiment: ELISA
Tau409-426 pS422 peptide = target: T1, Tau409-426 pS422 peptide (human); experiment: SPR
T1 chain: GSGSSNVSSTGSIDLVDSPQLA

iPHF = iPHF (human, UniProt P10636); experiment: SPR
Chain of iPHF (P10636 2-758): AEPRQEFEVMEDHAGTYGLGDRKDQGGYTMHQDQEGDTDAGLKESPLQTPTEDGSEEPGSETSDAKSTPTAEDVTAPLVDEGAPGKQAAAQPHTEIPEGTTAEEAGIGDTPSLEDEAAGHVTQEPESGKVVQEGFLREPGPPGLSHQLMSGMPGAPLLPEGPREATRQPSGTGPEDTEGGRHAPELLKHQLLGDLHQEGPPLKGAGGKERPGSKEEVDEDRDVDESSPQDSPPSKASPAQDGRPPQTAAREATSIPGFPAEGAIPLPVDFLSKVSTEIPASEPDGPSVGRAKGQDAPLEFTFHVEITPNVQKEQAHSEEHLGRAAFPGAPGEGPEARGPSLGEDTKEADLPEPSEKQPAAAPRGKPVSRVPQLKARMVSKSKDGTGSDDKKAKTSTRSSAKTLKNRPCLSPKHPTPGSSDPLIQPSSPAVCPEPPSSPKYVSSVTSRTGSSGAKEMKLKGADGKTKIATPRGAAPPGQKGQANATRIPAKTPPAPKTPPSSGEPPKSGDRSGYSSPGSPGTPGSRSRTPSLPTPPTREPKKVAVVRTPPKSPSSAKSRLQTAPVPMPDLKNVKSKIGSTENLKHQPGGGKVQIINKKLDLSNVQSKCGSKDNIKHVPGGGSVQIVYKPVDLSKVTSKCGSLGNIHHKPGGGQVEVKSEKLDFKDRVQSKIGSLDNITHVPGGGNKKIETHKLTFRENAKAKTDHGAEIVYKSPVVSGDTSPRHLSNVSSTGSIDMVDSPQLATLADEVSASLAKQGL

Chain of ePHF (P10636 2-758): as above
Chain of wild type tau (human) (P10636 other isoform, or with tags, fused parts or gaps): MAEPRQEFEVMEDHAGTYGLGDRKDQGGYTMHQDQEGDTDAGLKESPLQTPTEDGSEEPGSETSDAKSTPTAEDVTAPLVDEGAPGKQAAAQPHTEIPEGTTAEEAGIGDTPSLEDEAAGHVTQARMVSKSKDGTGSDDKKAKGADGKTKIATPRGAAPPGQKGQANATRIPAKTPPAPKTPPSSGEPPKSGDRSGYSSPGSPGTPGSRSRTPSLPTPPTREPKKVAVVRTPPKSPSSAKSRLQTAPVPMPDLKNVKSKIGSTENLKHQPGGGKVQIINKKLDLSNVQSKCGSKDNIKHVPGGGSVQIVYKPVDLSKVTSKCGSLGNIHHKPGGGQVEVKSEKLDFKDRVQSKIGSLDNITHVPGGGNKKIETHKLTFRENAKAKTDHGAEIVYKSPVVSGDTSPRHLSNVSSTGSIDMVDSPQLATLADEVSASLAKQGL

| Binder | EC50 (ePHF) [pM] | binding result (wild type tau) | other results |
| --- | --- | --- | --- |
| B1 | 140 | – | – |
| B2 | – | no binding | – |
| B3 | – | no binding | – |
| B4 | – | – | Kd (Tau409-426 pS422 peptide): 29.4 pM |
| B5 | – | – | Kd (iPHF): 30.4 pM |
| B6 | 190 | – | – |
| B7 | 85 | – | – |
| B8 | – | no binding | – |
| B9 | 130 | – | – |
| B10 | – | no binding | – |
| B11 | – | – | Kd (iPHF): 29.3 pM |
| B12 | – | no binding | – |
| B13 | 100 | – | – |
| B14 | – | no binding | – |
| B15 | 180 | – | – |
| B16 | – | no binding | – |
| B17 | 160 | – | – |
| B18 | – | – | Kd (Tau409-426 pS422 peptide): 38.6 pM |
| B19 | 170 | – | – |
| B20 | – | no binding | – |
| B21 | – | no binding | – |
| B22 | – | no binding | – |
| B23 | 150 | – | – |
| B24 | – | – | Kd (Tau409-426 pS422 peptide): 40.8 pM |
| B25 | 95 | – | – |
| B26 | 160 | – | – |
| B27 | – | no binding | – |
| B28 | – | – | Kd (Tau409-426 pS422 peptide): 53.3 pM |
| B29 | 80 | – | – |
| B30 | – | – | Kd (iPHF): 16.5 pM |
